Experimental data taken from FireProtDB (doi:10.1074/jbc.274.53.37533).

B1: Cytochrome c-551, P00099 (parent)
chain: MKPYALLSLLATGTLLAQGAWAEDPEVLFKNKGCVACHAIDTKMVGPAYKDVAAKFAGQAGAEAELAQRIKNGSQGVWGPIPMPPNAVSDDEAQTLAKWVLSQK

Variants of: B1
Details: Pseudomonas aeruginosa (strain ATCC 15692 / DSM 22644 / CIP 104116 / JCM 14847 / LMG 12228 / 1C / PRS 101 / PAO1), pH 5, CD, structure 451C, whole UniProt chain shown

Variant | ddG of mutation (higher = less stable) (50.4 °C, Thermal, HCl 10 mM) [kcal/mol] | Tm (Thermal, HCl) [°C] | change of melting temperature, mutant - wild type (higher = more stable) (Thermal, HCl) [°C] | unfolding enthalpy (van 't Hoff) (Thermal, HCl) [kcal/mol] | ddG of mutation (higher = less stable) (25 °C, GdnHCl, HCl) [kcal/mol] | denaturant m value (25 °C, GdnHCl, HCl) [kcal/mol/M] | denaturant midpoint (higher = more stable) (25 °C, GdnHCl, HCl) [M]
E65Y | -0.6 | 55.5 | 5.1 | 57.4 |  |  | 
F56Y E65Y | -2.4 | 70.7 | 20.3 | 63.7 |  |  | 
F29A V35M | -1.4 | 62.4 | 12 | 46.7 |  |  | 
V100I | -1 | 58.8 | 8.4 | 43.8 | -0.06 | 2.02 | 2.44
Q59R | -0.5 | 54.7 | 4.3 | 51.3 |  |  | 
F29A | -1.1 | 59.9 | 9.5 | 48.2 |  |  | 
F56Y Q59R E65Y | -2 | 57.9 | 17.5 | 56.4 |  |  | 
Q59R E65Y | -0.5 | 54.7 | 4.3 | 46.2 |  |  | 
F56Y Q59R | -1.5 | 62.9 | 12.5 | 54.5 |  |  | 
V35M | -0.4 | 53.6 | 3.2 | 43.8 |  |  | 
F56Y | -1.9 | 66.4 | 16 | 61.2 |  |  | 
